Results from patent publication US20120100074A1 (Teva, published 2012).

B1: murine anti-LIGHT monoclonal antibody 10D11 (antibody, V domains shown)
VH: EIQLQQSGPDLVKPGASVKVSCKASGYSFTDYYIYWVRQSHGKSLEWIGYIDPYNGGTKYNQKFKDTASLTVDKSSSTAFMHLNSLTSEDSAVYYCARTSGSSWFPYWGQGTLVTVSA
VL: DIVLTQSPATLSVTPGDSVSLSCRASQSISNNLHWYQQKSHESPRLLIKYTYQSISGIPSRFSGSGSGTDFTLTINSVETEDFGMYFCQQSNRWPLTFGAGTKLELKR
notes: Mouse hybridoma monoclonal antibody; also called m10D11; mD10D11
B2: humanized 5E10 antibody (antibody, V domains shown)
VH: QVQLVQSGAEVKKPGASVKVSCKASGYTFTSYYIHWVRQAPGQRLEWMGWIFPGSDITKYNEKFKGRVTITRDTSASTAYMELSSLRSEDTAVYYCAREDYGISTYSAMDFWGQGTLVTVSS
VL: DIQLTQSPSFLSASVGDRVTITCKASQDVGTAVAWYQQKPGKAPKLLIYWASTRHTGVPSRFSGSGSGTEFTLTISSLQPEDFATYYCQQYSSYPLTFGQGTKVEIKR
notes: also called h5E10

How the values were obtained:
[1] = target: T1, LIGHT (TNFSF14), recombinant soluble protein (human, UniProt O43557 83-240, limits assumed); assay: BiaCore (SPR)
T1 construct: The immunogen was the extracellular domain fragment (Leu Ile Glu to Phe Met Val of AF036581); also called TL5; LIGHT/TL5
T1 sequence (O43557 83-240 limits assumed): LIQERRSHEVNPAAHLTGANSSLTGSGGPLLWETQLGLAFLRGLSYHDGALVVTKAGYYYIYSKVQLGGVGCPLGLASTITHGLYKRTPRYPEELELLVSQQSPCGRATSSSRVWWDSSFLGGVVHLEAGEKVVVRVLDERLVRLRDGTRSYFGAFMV

[2] = target: T2, LIGHT expressed on the cell surface (LIGHT transfected cells; activated T-cells) (UniProt O43557 1-240, limits assumed); assay: flow cytometry on LIGHT transfected cells against vector control cells
T2 construct: whole, on cells
T2 sequence (O43557 whole entry): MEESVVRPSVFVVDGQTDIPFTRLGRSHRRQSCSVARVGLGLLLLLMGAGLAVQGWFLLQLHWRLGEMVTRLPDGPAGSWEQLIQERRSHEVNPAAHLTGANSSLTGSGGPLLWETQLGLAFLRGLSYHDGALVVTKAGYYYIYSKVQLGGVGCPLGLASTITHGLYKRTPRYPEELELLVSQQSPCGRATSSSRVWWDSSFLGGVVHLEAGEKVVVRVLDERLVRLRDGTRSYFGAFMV

[3] = target: T1, LIGHT (TNFSF14), recombinant soluble …; assay: competition ELISA: inhibition of LIGHT-biotin binding to HVEM-Fc captured by Protein A
[4] = target: T1, LIGHT (TNFSF14), recombinant soluble …; assay: direct binding ELISA on LIGHT
[5] = target: T1, LIGHT (TNFSF14), recombinant soluble …; assay: competition ELISA: inhibition of LIGHT-biotin binding to LTbR-Fc captured by Protein A
[6] = target: T1, LIGHT (TNFSF14), recombinant soluble …; assay: competition ELISA: inhibition of LIGHT-biotin binding to DcR3-Fc captured by Protein A
[7] = target: T2, LIGHT expressed on the cell surface …; assay: flow cytometry on PMA/ionomycin activated Th1, Th17 and Th2 cells, biotin labeled antibody, streptavidin-PE
Protocol: FIG. 10B illustrates binding of humanized 5E10 antibody to Th1, Th17 and Th2 activated T-cells compared to controls. Polarized T-cells were activated with PMA/Ionomycin for 24 hr. Biotin labeled LIGHT antibody or control antibody was incubated with cells for 40 minutes at room temperature. After washing twice with PBS, the antibody binding to LIGHT expressed on activated T-cells was determined by flow cytometry using strepavidin conjugated to PE. Dotted lines on figure indicates humanized LIGHT antibody binding. Solid fill indicates control antibody binding.
This example describes an assay protocol to determine LIGHT antibody binding to LIGHT expressed on surface of activated T-cells by Flow cytometry. Polarized Th1, Th2 and Th17 cells were activated with 50 ng/mL PMA and 0.5 μg/mL lonomycin overnight at 37° C. One million activated T-cells were transferred to 5 mL FACS tubes and centrifuged at 1200 rpm for 5 minutes. The cellet pellet was resuspended in FACS staining buffer and incubated with anti-LIGHT or control antibodies at room temperature for 40 minutes. After washing twice with 2 mL PBS, the cells were incubated with PE-conjugated secondary reagents for 1 hour. The cells were washed 3 times with 2 mL PBS and resuspended in 0.5 mL PBS and analyzed by flow cytometry.

Binder | Kd [1] [pM] | MFC ratio (mean fluorescence on LIGHT transfected cells to vector control cells) [2] [ratio] | IC50 [3] [pM] | EC50 [4] [pM] | IC50 [5] [pM] | IC50 [6] [pM] | binding result [7]
B1 | 45 | 13.1 | 80 | 160 | 1.2 | 140 | –
B2 | – | – | – | – | – | – | binds
